The target in one test is HLA-A*02:02. As to the kind of experiment: IEDB peptide-MHC binding, purified MHC/competitive/radioactivity; filed as Kd, often an IC50 or EC50 that approximates it; ≥ and ≤ were set here for values at or beyond the usual limits of such assays. As to conditions: source organism: Homo sapiens.
The Kd is the constant that tells how readily two partners part at equilibrium. With QLFNHTMFIL, the Kd is 0.423 nM.

The same test, now with this note: source organism: SARS coronavirus Tor2.
As for AIILASFSA, the Kd turned out to be 201 nM.
Still for that read-out and setting: the result for AMWLLLLSI reads 357 nM.

Staying with this test, now noted: source organism: Vaccinia virus WR.
Regarding AAAKTPVIVV, the Kd is 8040 nM.
Same read-out and setting: the value for AAVIIMAINV was 1290 nM; that for AIKSNNHLT was not below 50700 nM; that for AVANCVRNL was 66.3 nM.
Take CALVSDCAST: the Kd stood at 6410 nM.
The same measure, in the same setting: the result for DINESMSQMV reads 312 nM; that for DISDVKVLAA, not below 33800 nM.
The same measure, in the same setting: the result for DLAIKQYGDI reads 17900 nM; that for EAFETQSGAL, 8560 nM.

Another test deals with HLA-A*02:03. Described as above. The conditions noted are these: source organism: Dengue virus 2 Jamaica/1409/1983.
For the sequence PLVAGGLLTV, the Kd was 35.1 nM.

The same test, now with this note: source organism: Dengue virus 3 Martinique/1243/1999.
Consider ILAGPMPVTA, for which the Kd came to 125 nM.
For the sequence RLASNAICSA, the Kd was found to be 135 nM.

Still in this test, the particulars now being: source organism: Homo sapiens.
In the case of QLFNHTMFIL, the Kd was found to be 8.18 nM.

The test is the same for the next values; noted with them: source organism: SARS coronavirus Tor2.
On to AIILASFSA, for which the Kd worked out at 176 nM.
Same read-out and setting: the result for AMWLLLLSI reads 205 nM.

The same test, now with this note: source organism: Vaccinia virus WR.
Regarding AAAKTPVIVV, the Kd came to 1520 nM.
Same read-out and setting: the result for AAVIIMAINV reads 607 nM.
The same measure, in the same setting: the result for AIKSNNHLT reads not below 28600 nM.
Same read-out and setting: the value for AVANCVRNL was 114 nM; that for CALVSDCAST was 146 nM; that for DINESMSQMV was 488 nM.
DISDVKVLAA: the Kd came out at 2200 nM.
With DLAIKQYGDI, the Kd was not below 33300 nM.
Same read-out and setting: the value for EAFETQSGAL was 995 nM.

The target of a further test is HLA-A*02:06. Described as above. The conditions noted are these: source organism: Dengue virus 1 Singapore/S275/1990.
Turning to LTLKGMSYV, the Kd amounted to 7 nM.

The same test, now with this note: source organism: Dengue virus 2 Jamaica/1409/1983.
For AILLVAVSFV, the Kd turned out to be 60.9 nM.

Staying with this test, now noted: source organism: Dengue virus 2 Peru/IQT2913/1996.
As to FQRVLIFIL, the Kd amounted to 1580 nM.

The same test, now with this note: source organism: SARS coronavirus Tor2.
As for AIILASFSA, the Kd worked out at 81.6 nM.
On the same count and under the same terms, the value for AMWLLLLSI was 268 nM.

Still in this test, the particulars now being: source organism: Vaccinia virus WR.
For AAAKTPVIVV, the Kd stood at 13400 nM.
On the same count and under the same terms, the result for AAVIIMAINV reads 446 nM.
For AIKSNNHLT, the Kd was not below 77100 nM.
Still for that read-out and setting: the value for AVANCVRNL was 1380 nM.
As for CALVSDCAST, the Kd was found to be 2600 nM.
The same measure, in the same setting: the value for DINESMSQMV was 4150 nM; that for DISDVKVLAA was 4610 nM.
Still for that read-out and setting: the result for DLAIKQYGDI reads not below 46500 nM; that for EAFETQSGAL, 15000 nM.

In a further test the target is HLA-A*03:01. The description is as above. As to conditions: source organism: Lassa virus Josiah.
SCPKPHRLNH: the Kd was not below 21300 nM.

The same test, now with this note: source organism: Lymphocytic choriomeningitis virus (strain Armstrong).
With SCQGSDDIR, the Kd was not below 78000 nM.

Still in this test, the particulars now being: source organism: Mammarenavirus brazilense.
For SVTLDFTKFH, the Kd was 7520 nM.

The test is the same for the next values; noted with them: source organism: Mammarenavirus guanaritoense.
For the sequence VCEEFFHQK, the Kd turned out to be 11600 nM.

The same test, now with this note: source organism: Mammarenavirus lassaense.
As for QCWRSFLNK, the Kd was determined as 567 nM.

Still in this test, the particulars now being: source organism: Mammarenavirus whitewaterense.
As to SLLTNDTTWI, the Kd is not below 70000 nM.

The test is the same for the next values; noted with them: source organism: SARS coronavirus Tor2.
Regarding QQLRVESSSK, the Kd was 588 nM.
The same measure, in the same setting: the value for QSLCFLLTQK was 6.2 nM; that for SLCFLLTQK was 25.6 nM.
Still for that read-out and setting: the value for SQIQLSLLK was 892 nM; that for TLAVPYNMR was 995 nM; that for TLDESFLGR was 1430 nM.
The same measure, in the same setting: the value for TTGIGYQPYR was 6450 nM.

The test is the same for the next values; noted with them: source organism: Vaccinia virus WR.
Regarding PSAEDNYLAK, the Kd is not below 32200 nM.
Same read-out and setting: the value for PVIVVPVIDR was 4820 nM.
On the same count and under the same terms, the value for QTTVNTLSER was 1520 nM; that for SAFNDDGIY was not below 78000 nM.
On the same count and under the same terms, the result for SAVFKDSFLR reads 664 nM; that for SAVVDNKLK, not below 23600 nM.
For the sequence SIYSRPKIK, the Kd worked out at 2.67 nM.
Still for that read-out and setting: the value for SSFIMRNFLR was 2100 nM; that for TILLSDKGK was 1540 nM; that for TLSPAHLINK was 2.05 nM.
On the same count and under the same terms, the result for TMCTEETKR reads not below 78000 nM.
Still for that read-out and setting: the value for TVKTNLYMK was 3680 nM.
Turning to VIPFDDIVR, the Kd is not below 78000 nM.
Same read-out and setting: the value for VIVVPVIDR was not below 78000 nM; that for VMANNVKKK was 31.8 nM; that for VSIILANERY was 12800 nM.
On the same count and under the same terms, the result for VTISKDNLER reads not below 39000 nM; that for VTSLAIKNYY, 206 nM.
Take VVKLTAVCMK: the Kd was 115 nM.
Still for that read-out and setting: the result for YTVEFDRDK reads not below 78000 nM; that for YVIRHVDGK, 1450 nM.

In a further test the target is HLA-A*11:01. The description is as above. The conditions noted are these: source organism: Lassa virus Josiah.
Regarding SCPKPHRLNH, the Kd was not below 69700 nM.

The same test, now with this note: source organism: Lymphocytic choriomeningitis virus (strain Armstrong).
Regarding SCQGSDDIR, the Kd is not below 77900 nM.

Staying with this test, now noted: source organism: Mammarenavirus brazilense.
As to SVTLDFTKFH, the Kd is 7100 nM.

Staying with this test, now noted: source organism: Mammarenavirus guanaritoense.
Take VCEEFFHQK: the Kd was 621 nM.

Staying with this test, now noted: source organism: Mammarenavirus lassaense.
In the case of QCWRSFLNK, the Kd turned out to be 4950 nM.

Still in this test, the particulars now being: source organism: Mammarenavirus whitewaterense.
On to SLLTNDTTWI, for which the Kd was not below 69700 nM.

The same test, now with this note: source organism: SARS coronavirus Tor2.
Turning to QQLRVESSSK, the Kd was 721 nM.
Same read-out and setting: the value for QSLCFLLTQK was 10.8 nM.
Turning to SLCFLLTQK, the Kd was 22.7 nM.
Take SQIQLSLLK: the Kd stood at 29.2 nM.
The same measure, in the same setting: the value for TLAVPYNMR was 3230 nM.
Still for that read-out and setting: the result for TLDESFLGR reads 669 nM; that for TTGIGYQPYR, 1140 nM.

Staying with this test, now noted: source organism: Vaccinia virus WR.
Regarding PSAEDNYLAK, the Kd is 8.64 nM.
Still for that read-out and setting: the result for PVIVVPVIDR reads not below 21600 nM; that for QTTVNTLSER, 76.8 nM; that for SAFNDDGIY, 14000 nM.
For the sequence SAVFKDSFLR, the dissociation constant Kd came to 45.9 nM.
In the case of SAVVDNKLK, the Kd was determined as 508 nM.
For SIYSRPKIK, the Kd is 6.62 nM.
In the case of SSFIMRNFLR, the Kd turned out to be 8.89 nM.
Still for that read-out and setting: the result for TILLSDKGK reads 81.2 nM; that for TLSPAHLINK, 1.29 nM.
With TMCTEETKR, the Kd is not below 77900 nM.
Still for that read-out and setting: the value for TVKTNLYMK was 16.2 nM; that for VIPFDDIVR was 9600 nM; that for VIVVPVIDR was 675 nM.
Regarding VMANNVKKK, the Kd worked out at 215 nM.
On the same count and under the same terms, the result for VSIILANERY reads 1420 nM; that for VTISKDNLER, 13.7 nM.

Values taken from the Immune Epitope Database (IEDB).
